The nanobody polyreactivity screen of Harvey et al. (2022)

Experiment: yeast display, Sf9 membrane polyspecificity reagent, FACS + sequencing; frameworks hold sequencing errors
In short: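 After 36–48 hours of galactose induction, yeast (Saccharomyces cerevisiae BJ5465) displaying a synthetic nanobody library were stained at 4 °C for 1 hour with 10% biotinylated, detergent-solubilized Sf9 membrane reagent. Streptavidin microbeads enriched the stained cells before FACS sorting into low and high (top ~1%) gates on anti-HA and streptavidin fluorescence. Each clone's polyreactivity label reflects its gate of origin.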

| Sequence | polyreactivity (PSR sort gate) |
| --- | --- |
| QVQLVESRRGLVQAGGSLRLSCAASGSIFSGYVMGRYRKAPGKETELVAAITWSGGRTYYADSVKGRFTISRDYAKNTVYLQMNSLKPEDTAVYYCAKRNIKSSGYYYWGQGTQVTVSS | high polyreactivity |
| QVQLVESGGGLVQAGGSLRLTCAASGRTFRVYAMGWYRQAPGKERELVATITSSGGSTYYADSVKGRFTISRDNAKKTVYLQMNSLKREDTAVYYCNVSVYYNYDSSYDYWGQGTQVTVSS | low polyreactivity |
| QVQLVESGGGLVQAGGSLRLSCAASGSIFDPNAMGWYRQAPGKERELVAAINSGGSTDYADSVKGRFTISRDNAKNTVYLQMNSLKPEDTAVYYCNAEYGYSGVGDDYWGQGTQVTVSS | low polyreactivity |
| QVQLVESGGGLVQAGGSLRLSCAASGIIFTNYSMGWYRQAPGKERELVAAISKGAGRTYYADSVKGRFTISRDNAKNTVYLQMNSLKPEDTAVYYCNKAKRSGGYPGVFSYDYWGQGTQVTVSS | high polyreactivity |
| QVQLVESGGGLVQAGGSLRLSCAASGSTFTGYAMGWYRQAPGKERELVAAISRSGGSTSYADSVKGRFTISRDNAKNTVYLQMNSLKPEDTAVDYCAAQVQGTTRAKQRGGIGELDYWGQGTQVTVSS | low polyreactivity |
| QVQLVESGGGLVQAGGSLRLSCAASGSTFDDNAMGWYRQAPGKERELVASITYRGGSTYYADSVKGRFTISRDNAKNTVYLQMNSLKPEDTAVYYCAKGHYFKYDYWGQGTQVTVSS | low polyreactivity |
| QVQLVESGGGLVQAGGSLRLSCAASGRIFIYNAMGWYRQAPGKEREFVAAISSSGGSTYYADSVKGRFTISRDNAKNTVYLQMNSLKPEDTAVYYCAAGGWPYSGGLFFQPNYDYWGQGTQVTVSS | low polyreactivity |
| QVQLVESGGGVVQAGGSLRLSCAASGRTFYRYAMGWYRQAPGKERELDAAISWRGGSTRYADSVKGRFTISRDNAKNTVYFQMNSLKPEDTAVYSCATRSTYWGWSSYGMDHWGQGTQVTVSS | high polyreactivity |
| QVQLVESGGGLVQAGGSLRLSCAASGLTLSGNAMGWYRQAPGKERELVAAITGRGGSTTYADSVKGRFTISRDNAKNTVYLLMNSLKPEDTAVYYCAADGRWYWDYEYWGQGTQVTVSS | low polyreactivity |
| QVQLVESGGGLVQAGGSLRLSCAASGITFYHYAMGWYRQAPGKKRELVASITDGGITKYADSVKGRFTISRDNAKYTVYLQMNSQNPEDTAVYYCAAIAYPDIPTYFDYDSDFFYWGQGTQVTVSS | high polyreactivity |
| QVQLVESGGGLVQAGGSLRLSCAASGGTFSPNTMGWYRHAPGKERELVAAISSSGSTSYADSVKGRFTISRDNAKNTVYLQMNSLKPEDTAVYYCNADDTISYYASGFDNYDYWGQGSQVTVSS | low polyreactivity |
| QVQLVESGGGLVQAGGSLRLSCAASGIIFDGYAMGWYRQAPGKEREFVAVISSSGGTTYYADSVKGRFTISRDNAKNTVYLQMNSLKPEDTAVYYCATLRYSPGWYTRDDYWGQGTQVTVSS | low polyreactivity |
| QVQLVESGGGLVQAGGSLRLSCAASGSIFYWNVMGWYRQAPGKERELVAGISTSVGNTYYADSVKGRFTISRDNAKNTVYLQMNSLKPEDTAVYYCNVAGKQKPYYVTTRLDYWGQGTQVTVSS | high polyreactivity |
| QVQVVESGGGLVQAGGSLRLSCAASGITFWGYAMGWYRQAPGKERELVAAITRTGSTYYADSVKGRFTISRDNAKNTVYLQMNSLKPEDTALYYCAAYTPNASTYRRKSSKKVYYWGQGTQVTVSS | high polyreactivity |
| QVQLVESGGGLVQAGGSLRLSCAASGFTFSGHTMGWSRQAPGKERELVATISRTGGITYYADSVKGRFTISRDNAKNTVLLQMNSLKPEDTAVYYCNRRYYYFVYPDDYWGQGTQVTVSS | high polyreactivity |
| QVQLVESGGGLVQAGGSLRLSCAASGSTFGDYAMGWYRQAPGKERELVAAMSRGGSTYYADSVKGRFTISRDNAKNTVYLQMNSLKPEDTAVYYCNKDEGYSASPDGSTFDYWGQGTQVTVSS | low polyreactivity |
| QVQLVESGGGLVQAGGSLRLSCAASGRTFYYYAMGWYRHAPGKERELVAAISIGGITYADSVKGRFTISRDNAKNTVYLQMNSLKPEDTAVYYCAATARQSRGRFYWGQGTQVTVSS | low polyreactivity |
| QVQLVESGGGLVQAGGSLRLSCAASGRIFPRYAMGWYRQAPGKERELVAAITSSGTSTYYADSVKGRFTISRDNAKNTVYLQMNSLKPEDTAVYYCNAVKYARWGYDYWGQGTQVTVSS | high polyreactivity |
| QVQLVESGGGLVQEGGSLRLSCAASGLIFNRYAMGWYRQAPGKERELVAAITSRGGRTYYADSVKGRFTISRDNAKNTVYLQMNSLKPEDTAVYYCNRTPTGSYLYGMDYWGQGTQVTVSS | high polyreactivity |
| QVQLVESGGGLVQAGGRLRLTCSASGFIIRFYAMGWYRQATGKEREFVASISRRAGRTYYADSVKGRFTISRDNAKNTVYLQMNSLKPEDTAVFYCAASGFGSFRYSSTYDYWGQGSQVTVSS | high polyreactivity |
| QVQLVESGGGLVQAGGSLRLSCAASGLTFGNYAMGWYRQAPGKERELVAAISKRGGTTYYADSVKARFTISRDNAKNTVYLQMNSLKPEDTAVYYCSARDYSHPTDDNYWGQGTQVTVSS | high polyreactivity |
| QVQLVETGGGLVQAGGSLRLSCAASGIIFSKYAMGRYRQAPGKERELVAAITRSGGSTYYADSVKGRFTISRDNAKNTVYLQMNSLKPEDTAVYYCAKRSGTPTNRQRYGYWGQGTQVTVSS | high polyreactivity |

| Sequence | polyreactivity (PSR sort gate) |
| --- | --- |
| QVQLVESVGGLVQAGGSLRLSCAASGSIFDRYAMGWYRQAPGKERELVAAISTGGSTNYADSVKGRFTISRDNAKNTVYLQMNSLKPEDTAVYYCAARYLYRMYYWGQGTQVTVSS | low polyreactivity |
| QVQLVESGGGLVQAGGSLRLSCAASGITFGSYAMGRYRQAPGKERELVAAIDTSGDDTYYADSVKGRFTISRDNAKNTVYLQMNSLKPEDTAVYYCAAEFPSAEVDYWGQGTQVTVSS | low polyreactivity |
| QVQLVESRGGLVQAGGSLRLSCAATGSIFFSNTMGWYRQAPGTEREMVAAITSTGTTNYADSVKGRFTISRDNAKKTVYLQMNSLKPEDTAVFYCAVRARRWRYNYWGQGTQVTVSS | high polyreactivity |
| QVQLLESGGGLVQAGGSLRLSCAASGRTFTSNVMGWYRQAPGKERELVAAISSSGGRTYYADSVKGRFTISRDNAKNTVYLLMNSLKPEDTAVYSCAADGYPEYPRYGYWGQGTQVTVSS | high polyreactivity |
| QVQLVESGGGLVQAGGSLRLSCAASGFIFWYYAMGWYRHAPGKERELVAVISSGSSTHYADSVKGRFTISRDNAKNTVYLQMNSLKPEDTAVDYCAARIRTRYFTGYYYWGQGTQVSVSS | high polyreactivity |
| QVQLVESGGGLVQAGGRLRLSCAASGSTIRRYAMRWYRQAPGKERELVAAIRQRGTSTYYADSVKGRFTISRDNAKNTVYLQMNSLKPEDTAVYYCAADSYSSRGNYWGQGTQVTVSS | high polyreactivity |
| QVQLVESGGGLVQAGGSLGLSCAASGFIFDAYAMGWYRQAPGKERELVAGISIGGRTNYADSVKGRFTISRDNAKNTVYLQMNSLKPEDTAVYYCAARNYRYYYGSYYRGPITNYEYWGQGTQVTVSS | low polyreactivity |
| QVQLVESGGGLVQAGGSLRLSCAAYGSIFPYYAMGWYRQAPGKERELVAGITSGTRTNYADSVKGRFTISRDNAKNTVYLQMNSLKPEDTAVYYCAAYYRAYRRDYYWGQGTQVTVSS | high polyreactivity |
| QVQHVESCGGLVQAGGSLRLSCADSGRIFGDYVMGWYRQAPGKERELVASIDTSGGSTYDADSVKGGFTISRDIAKNTVYLQMNSVKPEDSAVYYCAAERKYFVFVYYQGWYDYWGQGTQVTVSS | low polyreactivity |
| QVQLVESGGGLVQAGGSLRLSCAASGFTLGGYAMGWYRQAPGKEREFVAAISGRGGRTYYADSVKGRFTISRDNAKNTVYLQMNSLKPEDTAVYYCAAPTNHWTRLSGDYWGQGTQVTVSS | high polyreactivity |
| QVQLVESGGGLVQAGGSLRLSCAASGSIFLVNAMGWYRQAPGKERELVAIDGSGGSTYADSVKGRFTISRDNAMNTVYLQMNILKPEDTAVYYCAKDQEGPLYDYWGQGTQVTVSS | low polyreactivity |
| QVQLVESGGGLVQAGGSLRLSCAASGLTFYGYVMGWYRQAPGKERELVASISRSGGRTYYADSVKGRFTISRDNAKNTVYLQMNSLKPEDTAVYYCAAADQVGQEDDYWGQGTQVTVSS | low polyreactivity |
| QVQLVESGGGLVQAGGSLRLSCAASGRTFCYYTMVWYRQAPGKEREMVASISRVTSTYYADSVKGRFTISRDNAKNTVDLQMNSVKPEDTAVYYCAADRTRYYVGYRWTGNKMVYWGQGTQVTLSS | low polyreactivity |
| QDQLVESGGGLVQAGGSLRLSCAASGSIFFTNDMGWYRQAHGKEREFVAAITGGGGSTYYADSVKGRFTISRDNAKNTVYLQMNSLKPEDTAVYYCATKAKPRSGYNYWGQGTQVTVSS | low polyreactivity |
| QVQLVESGGGLVQAGGSLRLSCAASGSIFGSYAMGWYRQAPGKERELVAVITSASTNYADSVKGRFTISRDNAKNTVYLQMNSLKPEDTAVYYCNAALSHDFWNYRLGYWGQGTQVTVSS | low polyreactivity |
| QVQRVESGGGLVQAGGSLRLSCAASGITIYHYAMGCYRQAPGKERELVAAISRSGGSTSYADSVKGRFTISRDNAKNTVYLQMNSLKPEDTAVYYFAARLVRESDPLGYWGQGTQVTVSS | high polyreactivity |
| QVQLVESGGGLVQAGGSLRFSCAASGSIFWYNAMGWYRQAPGKERELVARISSSGDSTYYADSVKGRFTISRDNAKNTVYLQMNSLKPEDTAVYYCNVDYWSISESSWGYYTSYDYWGQGTQVTVSS | high polyreactivity |
| QVQLVESGGGLVQAGGSLRISCAASGIIFYLYTMGWYRQAPGKERELVAAITRGGSTYYADSVKGRFTISRDNAKNTVYLQMNSLKPEDTAVYYCAAKHGPGYRRWYDYWGQGTQVTVSS | high polyreactivity |
| QEQLQESGGGLVQAGDSPRLSCAESGYITARTGMGSYRQAPGKEREFVAGIASGTRTHYADSVKGRFTISRDNAKNAVYLQMTSLKPEDTAVYYCAATFGFFYYQYDYWGQGTQVTVSS | low polyreactivity |
| QVQLIESGGGLVQAGGSLRLSCAASGFTFYYNTMGWYRQAPGKERELVAAITRSVGSTYYADSVKGRFTISRDNAKNTVYLQMNSLKPEDTAVYYCAARRLGYYRKVKELDYWGQGTQVTVSS | high polyreactivity |
| QVHLVESGGGLVQAGGILRLSSPASGSISGWYAMGWSRQEPGKERELVSDMTRGGRTYYADSVKGRFTISRDNAKNTVYLQMNSLKPEDTAVYYCASPSPSYYYRSGWGSYYSWGLGTQVTVSS | high polyreactivity |
